Laboratory results as given in publication PMC9173640, “PI Kinase-EhGEF2-EhRho5 axis contributes to LPA stimulated macropinocytosis in Entamoeba histolytica” (PLoS Pathogens, 2022).

Target: T1, GST-RBD (Rho binding domain of mRhotekin) ( (printed as mRhotekin), UniProt Q8C6B2 17-98)
T1 construct: also called RBD-GST; source: E. coli BL21(DE3), purified (GST-sepharose beads); construct a gift from Dr. Richard Cerione
T1 sequence (looked up): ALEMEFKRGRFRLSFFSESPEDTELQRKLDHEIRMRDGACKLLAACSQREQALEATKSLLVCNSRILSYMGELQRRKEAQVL
Assay: pull-down; GST-RBD/GST-PBD bound to sepharose beads incubated 2 hrs at 4°C with lysates (10 mM MgCl2, 5 mM EDTA) of serum starved HA-EhRho5 trophozoites, with or without 15 uM LPA for 15 mins, followed by 100 nM wortmannin or DMSO; blot with anti-HA
Conditions: one partner purified

B1: HA-EhRho5 (natural protein)
chain: not shown
notes: EhRho5 (EhRacD), Rho family GTPase of Entamoeba histolytica, Acc no; EHI_012240; PCR primers run from the ATG to the stop codon; cloned in EhEx-HA with SmaI-XhoI; Expressed under the amoebic cysteine synthase promoter; also called EhRacD; source: E. histolytica HM1:IMSS trophozoites, stably transfected (EhEx-HA), in lysate
fold increase in binding after LPA treatment against untreated trophozoites: 7 fold
